Drawing on patent EP3831849A1 (LamKap Bio beta AG, dated 2021), this text covers EC50 for eleven molecules.

Substitutions are numbered along the chain they refer to.

The labels stand for the following.
T1: biotinylated recombinant human CEACAM5 (human, UniProt P06731 35-685, biotin on the C-terminal Avitag)
T1 construct: also called CD66e; not shown: C-terminal Avitag plus hexa-histidine tag, human Fc or mouse Fc
T1 sequence: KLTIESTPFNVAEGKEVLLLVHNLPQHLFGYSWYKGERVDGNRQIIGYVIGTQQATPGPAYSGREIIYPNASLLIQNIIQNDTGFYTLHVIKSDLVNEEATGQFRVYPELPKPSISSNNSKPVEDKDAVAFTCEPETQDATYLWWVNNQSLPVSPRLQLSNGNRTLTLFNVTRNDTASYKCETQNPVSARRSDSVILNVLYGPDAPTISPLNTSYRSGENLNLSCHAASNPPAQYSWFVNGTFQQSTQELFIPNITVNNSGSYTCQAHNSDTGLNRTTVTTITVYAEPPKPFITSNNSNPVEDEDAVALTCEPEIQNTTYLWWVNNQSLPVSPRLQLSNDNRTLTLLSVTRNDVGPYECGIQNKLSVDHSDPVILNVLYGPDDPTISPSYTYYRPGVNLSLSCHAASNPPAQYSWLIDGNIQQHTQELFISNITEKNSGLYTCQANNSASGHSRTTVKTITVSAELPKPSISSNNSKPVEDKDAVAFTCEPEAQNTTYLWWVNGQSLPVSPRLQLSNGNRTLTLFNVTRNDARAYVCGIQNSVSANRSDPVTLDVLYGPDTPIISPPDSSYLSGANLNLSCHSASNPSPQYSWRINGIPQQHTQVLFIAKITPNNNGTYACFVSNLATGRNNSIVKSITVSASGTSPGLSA

B1: AC58 (antibody, human IgG1, lambda, V domains shown)
VH: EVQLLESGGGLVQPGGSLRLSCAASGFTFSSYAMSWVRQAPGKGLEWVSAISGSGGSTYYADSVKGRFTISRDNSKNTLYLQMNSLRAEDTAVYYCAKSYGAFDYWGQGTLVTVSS
VL: QSVLTQPPSVSGAPGQRVTISCTGSSSNIGVAHDVHWYQQLPGTAPKLLIYDYSERPSGVPDRFSGSKSGTSASLAITGLQAEDEADYYCQSWDNGPNGLVWVFGGGTKLTVLG
notes: Bivalent IgG1 mAb derived from AC21 by lead optimization; 6 carries the IgG1 Fc)
B2: AC59 (antibody, human IgG1, lambda, V domains shown)
VH: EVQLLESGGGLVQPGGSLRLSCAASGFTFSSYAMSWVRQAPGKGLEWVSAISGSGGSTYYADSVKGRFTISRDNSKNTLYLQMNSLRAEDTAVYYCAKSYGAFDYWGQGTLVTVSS
VL: B1 VL with G96S, P97E, V101I, W102Y
notes: as for B1
B3: AC54 (antibody, human IgG1, lambda, V domains shown)
VH: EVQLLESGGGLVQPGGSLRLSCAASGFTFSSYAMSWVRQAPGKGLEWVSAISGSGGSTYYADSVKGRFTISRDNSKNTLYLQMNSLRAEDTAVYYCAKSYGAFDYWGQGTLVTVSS
VL: QSVLTQPPSVSGAPGQRVTISCTGSSSNIHDVGYVHWYQQLPGTAPKLLIYGASGRPSGVPDRFSGSKSGTSASLAITGLQAEDEADYYCQSYDTRQVVPTPVFGGGTKLTVLG
notes: Bivalent IgG1 mAb; 6 carries the IgG1 Fc; also called CEACAM5 mAb AC54
B4: AC56 (antibody, human IgG1, lambda, V domains shown)
VH: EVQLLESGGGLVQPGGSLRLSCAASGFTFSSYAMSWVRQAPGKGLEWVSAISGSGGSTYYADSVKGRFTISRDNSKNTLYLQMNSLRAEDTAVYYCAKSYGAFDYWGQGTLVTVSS
VL: B3 VL with H30I, D31N, V32N, G33S, G52A, A53P, G55N, R96T, Q97G, V99M
notes: Bivalent IgG1 mAb; 6 carries the IgG1 Fc
B5: AC53 (antibody, human IgG1, lambda, V domains shown)
VH: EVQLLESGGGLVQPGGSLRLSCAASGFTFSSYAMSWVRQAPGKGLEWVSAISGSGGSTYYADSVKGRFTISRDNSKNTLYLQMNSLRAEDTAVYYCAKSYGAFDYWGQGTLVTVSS
VL: B3 VL with T95G, Q97A, V99F
notes: as for B4
B6: AC57 (antibody, human IgG1, lambda, V domains shown)
VH: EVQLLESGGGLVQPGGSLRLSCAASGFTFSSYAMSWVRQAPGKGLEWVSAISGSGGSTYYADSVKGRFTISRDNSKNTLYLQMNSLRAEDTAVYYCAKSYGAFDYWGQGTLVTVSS
VL: B3 VL with H30I, D31N, V32N, G33S, G52A, A53P, G55N, Q97F
notes: as for B4
B7: AC55 (antibody, human IgG1, lambda, V domains shown)
VH: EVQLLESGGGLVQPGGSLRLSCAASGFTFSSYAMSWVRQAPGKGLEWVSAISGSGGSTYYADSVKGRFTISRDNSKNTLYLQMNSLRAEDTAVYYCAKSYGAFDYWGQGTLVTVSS
VL: B3 VL with R96S, Q97A, V99F
notes: as for B4
B8: AC52 (antibody, human IgG1, lambda, V domains shown)
VH: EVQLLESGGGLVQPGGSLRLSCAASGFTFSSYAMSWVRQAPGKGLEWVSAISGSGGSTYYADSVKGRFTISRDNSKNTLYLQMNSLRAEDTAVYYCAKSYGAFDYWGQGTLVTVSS
VL: B3 VL with R96K, Q97R, V98E, V99F
notes: as for B4
B9: AC46 (antibody, human IgG1, lambda, V domains shown)
VH: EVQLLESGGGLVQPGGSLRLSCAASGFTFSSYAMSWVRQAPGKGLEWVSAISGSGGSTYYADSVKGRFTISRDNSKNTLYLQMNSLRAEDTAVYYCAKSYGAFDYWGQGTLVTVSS
VL: QSVLTQPPSASGTPGQRVTISCSGSSSNIVGVGVNWYQQLPGTAPKLLIYSYNKRPSGVPDRFSGSKSGTSASLAISGLQSEDEADYYCAAYDFSLLLPAPVFGGGTKLTVLG
notes: as for B4
B10: AC47 (antibody, human IgG1, lambda, V domains shown)
VH: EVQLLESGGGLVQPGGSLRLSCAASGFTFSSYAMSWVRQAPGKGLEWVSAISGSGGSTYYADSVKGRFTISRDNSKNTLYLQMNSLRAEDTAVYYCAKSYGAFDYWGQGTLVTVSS
VL: B9 VL with V30N, S51G, Y52F, K54S, F94M, L96T, L97Y, L98V
notes: as for B4
B11: AC48 (antibody, human IgG1, lambda, V domains shown)
VH: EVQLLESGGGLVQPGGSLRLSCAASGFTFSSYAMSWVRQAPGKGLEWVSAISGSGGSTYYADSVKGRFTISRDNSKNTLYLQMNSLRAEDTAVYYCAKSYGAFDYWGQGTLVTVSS
VL: B9 VL with V30N, S51E, Y52F, F94A, S95A, L96R, L97Y, L98V
notes: as for B4

One assay addresses T2, recombinant cynomolgus monkey CEACAM5 (cynomolgus monkey (macaca fascicularis)).
T2 construct: also called cyno CEACAM5; cynomolgus CEACAM5
The assay can be described thus: ELISA; biotinylated recombinant protein on streptavidin plate; bivalent mAb titrated.
Consider B1, for which the EC50 came to 0.04 nM.

As for B2, the EC50 amounted to 0.05 nM.

Regarding B3, the EC50 is 0.02 nM.

As for B4, the EC50 stood at 0.02 nM.

As to B5, the EC50 worked out at 0.02 nM.

Regarding B6, the EC50 turned out to be 0.02 nM.

B7: the EC50 worked out at 0.02 nM.

As to B8, the EC50 amounted to 0.02 nM.

In the case of B9, the EC50 worked out at 0.04 nM.

On to B10, for which the EC50 turned out to be 0.06 nM.

As for B11, the EC50 was 0.04 nM.

In the next assay the target is T1, biotinylated recombinant human CEACAM5. The description is as above.
On to B1, for which the EC50 was 0.04 nM.

Turning to B2, the EC50 turned out to be 0.05 nM.

Regarding B3, the EC50 was determined as 0.03 nM.

As to B4, the EC50 is 0.02 nM.

Regarding B5, the EC50 came out at 0.03 nM.

Turning to B6, the EC50 stood at 0.01 nM.

Turning to B7, the EC50 came out at 0.03 nM.

On to B8, for which the EC50 was 0.03 nM.

For the molecule B9, the EC50 came out at 0.07 nM.

As to B10, the EC50 stood at 0.03 nM.

Consider B11, for which the EC50 amounted to 0.05 nM.
